Series [1] concerns the target DnfA (Alcaligenes ammonioxydans, UniProt A0ABX8SXK4). As to the kind of experiment: biochemical.
Substrate in series [2]: NO
As to the kind of experiment: purified protein. As to conditions: 480 μM FAD, 10 mM NADH, 21% O2, 0.6 μM DnfA, 30 °C, 25-400 μM NH2OH.

One may read the Kd as the free concentration of one partner at which half of the binding sites on the other are occupied at equilibrium, for simple one-to-one binding. A high value points to weaker binding. As to `NO` [hydroxylamine], the Kd in series [1] worked out at 160 ± 20 nM.

B1: DnfA (Alcaligenes ammonioxydans) (protein)
chain: MTIKSYETDDAVRNMLQKLSVLWKNRAAVNQELPDYNNLAFDPNKADFSECLLPFREHQAWLEAPEELKSQCLSYAWGIYNLKTIYVECNVVTPSCEDIIKTPPPSANRNLLQDVMSQALLDEALHTRMSIMACNYIYSMRGLQPLDFTNFNLVQWRNDILSQCSSESERRLTRFAIACASETLITDYLKTMAEDKSIQTICHEVTRTHAMDEWSHSSVFSFVASDIIHGLSQKEREHMRAVILRTVEMFANNEMGAWEKVFSMVNFPNARDILHDTGDSNEIGVYTGSVESLIERIGLNSKSGQAQAQDEQQEALQ
One may read the Km as the concentration of substrate that gives half-maximal velocity. For orientation: kcat means the maximal rate divided by the concentration of active sites. With B1, in series [2], the Km was determined as 48.1 ± 6.0 µM and the turnover number (kcat) was found to be 0.31 ± 0.02 s⁻¹.

For the origin of these results see paper doi:10.1101/2020.08.20.256677v1 (biorxiv, 2020).
